According to article PMC11035591, “Structural insights into the transporting and catalyzing mechanism of DltB in LTA D-alanylation” (Nature Communications, 2024):

B1: Streptococcus thermophilus DltC (natural protein)
chain: MDVKAEVIEIIDELFMEDVSDMMDEDLFDAGVLDSMGTVELIVELESRFDIRVPVSEFGRDDWNTANKIVEGVTELRNA
notes: DltC, D-alanyl carrier protein, Streptococcus thermophilus; Used without the 4'-phosphopantetheine (Ppant) modification on Ser35; Modified pET28a vector with a TEV cleavage site; also called DltC-ST; source: E. coli BL21(DE3), purified (Ni column, TEV cleavage, Resource Q)
B2: Streptococcus thermophilus DltB, Q5M4V4 1-415 (enzyme)
chain: MIDFLKQLPHLEPYGNPFYFIYLGIALLPIFIGLFFKKRFAIYECLVSITFIVLALTGTHASQILALLFYIVWQIIWVYSYKRYRSQRDNKWVFYLHSFLVVLPLILVKVEPTINGTQSLLNFLGISYLTFRAVGMIIEMRDGVLKEFTLGEFLRFMLFMPTFTSGPIDRFKRFNEDYQSIPNRDELLNMLEQAVKYIMLGFLYKFVLAQIFGSMLLPPLKAQALSQGGIFNLPTLGVMYVYGFDLFFDFAGYSMFALAVSNLMGIKSPINFDKPFISRDMKEFWNRWHMSLSFWFRDFVFMRLVIVLMRNKVFKNRNTTSNVAYIINMMVMGFWHGITWYYIAYGIFHGIGLVINDAWLRKKKTINKDRKKAGLKPLPENKWTKALGIFITFNTVMLSFLIFSGFLNDLWFTKK

Columns and labels:
[1] = biological target: T1, Streptococcus thermophilus DltB (Streptococcus thermophilus, UniProt Q5M4V4 1-415); assay: cryo-EM structure; DltB tetramer (10 mg/mL) incubated with purified DltC (1:1 ratio) for 30 min; 3.50 Å; details: both partners purified
T1 construct: the entire chain from Met1 to Lys415 was modelled in the cryo-EM maps ('intact DltB protein'); Homo-tetramer (dimer of dimers) by SEC, cross-linking and cryo-EM; purification also gave oligomer, dimer and monomer fractions; also called WT DltB; DltB tetramer; source: E. coli C41(DE3); purified (Triton X-100 solubilisation, Ni-NTA, Superdex 200 in 0.03% β-DDM); also unpurified in whole cells, on …
T1 sequence (looked up): B2 chain

[2] = biological target: T2, Streptococcus thermophilus DltB (Streptococcus thermophilus), Q5M4V4; assay: cryo-EM structure; DltB tetramer (10 mg/mL) incubated with the inhibitor m-AMSA (1:3 ratio) for 30 min; 3.23 Å; details: remark: other sources report otherwise
T2 chain: B2 chain

[3] = biological target: T2, Streptococcus thermophilus DltB …; assay: cryo-EM structure; apo DltB tetramer, about 10 mg/mL in β-DDM; 3.42 Å; details: remark: other sources report otherwise
[4] = biological target: T2, Streptococcus thermophilus DltB …; assay: SEC; membrane with overexpressed DltB (wild type or mutant) mildly solubilised with 0.25% β-DDM, Superdex 200; fractions analysed by western blot (anti-His); details: remark: other sources report otherwise
[5] = biological target: T2, Streptococcus thermophilus DltB …; assay: cryo-EM structure; DltB tetramer (10 mg/mL) incubated with purified DltC (1:1 ratio) for 30 min; 3.50 Å; details: remark: other sources report otherwise

Binder | binding result [1] | stoichiometry N [2] | stoichiometry N [3] | stoichiometry N [4] | stoichiometry N [5]
B1 | binds |  |  |  | 
B2 |  | 4 | 4 | 4 | 4
